Numbering of substitutions follows the chain as printed.

The text below walks through data of patent US20240376200A1 (Seagen, published 2024).

B1: Vel-IPV-Ab1 Coil 134 (antibody, part only; not given: Ab1 heavy and light chains, part only)
heavy, part: QGASTSVDELQAEVDQLEDENYAKKTKVAQLRKKVEKLGSIPVSLRSG
light, part: QGASTTVAQLEEKVKTLRAENYEIKSEVQRLEEQVAQLGSIPVSLRSG
B2: Vel-IPV-Ab1 Coil 107 (antibody, part only; not given: Ab1 heavy and light chains, part only)
heavy, part: B1 heavy, part with K24S
light, part: B1 light, part with I24F
B3: Vel-IPV-Ab1 Coil 117 (antibody, part only; not given: Ab1 heavy and light chains, part only)
heavy, part: B1 heavy, part with K24F
light, part: B1 light, part with I24W
B4: Vel-IPV-Ab1 Coil 122 (antibody, part only; not given: Ab1 heavy and light chains, part only)
heavy, part: B1 heavy, part with K24Y
light, part: B1 light, part with I24A
B5: Vel-IPV-Ab1 Coil 145 (antibody, part only; not given: Ab1 heavy and light chains, part only)
heavy, part: B1 heavy, part with K24L, V28I
light, part: B1 light, part with I24A
B6: Vel-IPV-Ab1 Coil 110 (antibody, part only; not given: Ab1 heavy and light chains, part only)
heavy, part: B1 heavy, part with K24G
light, part: B1 light, part with I24W
B7: Vel-IPV-Ab1 Coil 138 (antibody, part only; not given: Ab1 heavy and light chains, part only)
heavy, part: B1 heavy, part with K24L, V28L
light, part: B1 light, part with I24L, V28I
B8: Vel-IPV-Ab1 Coil 137 (antibody, part only; not given: Ab1 heavy and light chains, part only)
heavy, part: B1 heavy, part with K24V
light, part: B1 light, part with I24L
B9: Vel-IPV-Ab1 Coil 103 (antibody, part only; not given: Ab1 heavy and light chains, part only)
heavy, part: B1 heavy, part with K24G
light, part: B1 light, part with I24Y
B10: Vel-IPV-Ab1 Coil 111 (antibody, part only; not given: Ab1 heavy and light chains, part only)
heavy, part: B1 heavy, part with K24G
light, part: B1 light, part with I24F
B11: Vel-IPV-Ab1 Coil 149 (antibody, part only; not given: Ab1 heavy and light chains, part only)
heavy, part: B1 heavy, part with K24I, V28I
light, part: B1 light, part with I24A
B12: Vel-IPV-Ab1 Coil 124 (antibody, part only; not given: Ab1 heavy and light chains, part only)
heavy, part: B1 heavy, part with K24S
light, part: B1 light, part with I24W
B13: Vel-IPV-Ab1 Coil 151 (antibody, part only; not given: Ab1 heavy and light chains, part only)
heavy, part: B1 heavy, part with K24L, V28L
light, part: B1 light, part with I24L, V28L
B14: Vel-IPV-Ab1 Coil 121 (antibody, part only; not given: Ab1 heavy and light chains, part only)
heavy, part: B1 heavy, part with K24W
light, part: B1 light, part with I24A
B15: Vel-IPV-Ab1 Coil 116 (antibody, part only; not given: Ab1 heavy and light chains, part only)
heavy, part: B1 heavy, part with K24A
light, part: B1 light, part with I24F
B16: Vel-IPV-Ab1 Coil 106 (antibody, part only; not given: Ab1 heavy and light chains, part only)
heavy, part: B1 heavy, part with K24Y
light, part: B1 light, part with I24F
B17: Vel-IPV-Ab1 Coil 118 (antibody, part only; not given: Ab1 heavy and light chains, part only)
heavy, part: B1 heavy, part with K24F
light, part: B1 light, part with I24S
B18: Vel-IPV-Ab1 Coil 115 (antibody, part only; not given: Ab1 heavy and light chains, part only)
heavy, part: B1 heavy, part with K24W
light, part: B1 light, part with I24Y
B19: Vel-IPV-Ab1 Coil 142 (antibody, part only; not given: Ab1 heavy and light chains, part only)
heavy, part: B1 heavy, part with K24L, V28K
light, part: B1 light, part with I24L, V28I
B20: Vel-IPV-Ab1 Coil 114 (antibody, part only; not given: Ab1 heavy and light chains, part only)
heavy, part: B1 heavy, part with K24W
light, part: B1 light, part with I24F

recombinant Antigen 1 (recombinant Ab1 target; recombinant integrin αvβ6 antigen), sequence (P06756 31-992, chain 1 of 2): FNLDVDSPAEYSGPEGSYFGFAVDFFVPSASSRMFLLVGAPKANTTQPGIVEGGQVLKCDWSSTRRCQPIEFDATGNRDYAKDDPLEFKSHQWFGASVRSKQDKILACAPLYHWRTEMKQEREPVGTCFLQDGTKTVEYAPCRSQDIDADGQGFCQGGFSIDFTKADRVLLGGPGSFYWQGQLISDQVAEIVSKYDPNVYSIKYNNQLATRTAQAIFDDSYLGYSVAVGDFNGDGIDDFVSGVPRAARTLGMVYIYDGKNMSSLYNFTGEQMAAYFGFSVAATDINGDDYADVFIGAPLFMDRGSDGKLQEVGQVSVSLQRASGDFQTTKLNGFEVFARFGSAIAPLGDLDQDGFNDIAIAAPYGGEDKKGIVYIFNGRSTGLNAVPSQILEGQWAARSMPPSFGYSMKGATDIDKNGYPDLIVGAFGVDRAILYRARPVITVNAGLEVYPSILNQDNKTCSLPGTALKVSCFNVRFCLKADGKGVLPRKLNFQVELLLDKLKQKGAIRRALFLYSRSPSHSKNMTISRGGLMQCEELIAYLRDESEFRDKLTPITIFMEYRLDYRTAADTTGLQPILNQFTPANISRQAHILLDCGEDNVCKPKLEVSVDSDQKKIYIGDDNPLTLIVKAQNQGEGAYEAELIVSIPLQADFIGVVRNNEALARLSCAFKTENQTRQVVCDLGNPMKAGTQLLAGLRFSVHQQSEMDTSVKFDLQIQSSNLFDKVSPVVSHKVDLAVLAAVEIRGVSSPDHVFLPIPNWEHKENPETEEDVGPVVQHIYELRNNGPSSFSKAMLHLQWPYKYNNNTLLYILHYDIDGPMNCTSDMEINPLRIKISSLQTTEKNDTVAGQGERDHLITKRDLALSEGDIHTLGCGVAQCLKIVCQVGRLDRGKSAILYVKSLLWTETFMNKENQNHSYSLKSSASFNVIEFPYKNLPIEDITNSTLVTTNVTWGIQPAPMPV
recombinant Antigen 1 (recombinant Ab1 target; recombinant integrin αvβ6 antigen), sequence (P18564 22-709, chain 2 of 2, further chain): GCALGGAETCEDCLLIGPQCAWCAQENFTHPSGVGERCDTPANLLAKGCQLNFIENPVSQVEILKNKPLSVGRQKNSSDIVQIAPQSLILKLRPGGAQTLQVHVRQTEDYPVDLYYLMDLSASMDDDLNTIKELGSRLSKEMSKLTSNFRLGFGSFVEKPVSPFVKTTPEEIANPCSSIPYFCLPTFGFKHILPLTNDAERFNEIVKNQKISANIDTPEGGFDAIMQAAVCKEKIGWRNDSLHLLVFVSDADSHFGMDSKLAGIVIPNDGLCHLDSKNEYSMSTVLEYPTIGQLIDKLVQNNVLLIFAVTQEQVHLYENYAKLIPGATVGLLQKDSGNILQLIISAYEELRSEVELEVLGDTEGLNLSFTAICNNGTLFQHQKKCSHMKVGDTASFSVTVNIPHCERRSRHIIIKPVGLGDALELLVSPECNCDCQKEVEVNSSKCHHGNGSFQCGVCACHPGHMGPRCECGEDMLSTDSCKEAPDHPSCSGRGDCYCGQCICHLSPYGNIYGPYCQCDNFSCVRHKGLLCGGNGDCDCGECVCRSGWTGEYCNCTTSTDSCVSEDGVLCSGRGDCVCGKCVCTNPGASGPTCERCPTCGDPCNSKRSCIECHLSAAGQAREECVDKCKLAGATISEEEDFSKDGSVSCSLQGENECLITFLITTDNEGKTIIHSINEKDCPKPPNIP

One test concerns the target recombinant Antigen 1 (recombinant Ab1 target; recombinant integrin αvβ6 antigen). Briefly: saturation binding ELISA. (An ELISA detects its analyte on a solid surface through an enzyme-linked reagent.)
One may read the EC50 as the concentration needed to bring the measured effect to its halfway point. Turning to B1, the Binding Bmax (OD450) is 0.7 OD450, the half-maximal effective concentration (EC50) worked out at 14.7 nM and the EC50 fold change from Ab1 was found to be 67 fold.

On to B2, for which the Binding Bmax (OD450) worked out at 0.6 OD450, the EC50 was found to be 133 nM and the EC50 fold change from Ab1 was 458 fold.

In the case of B3, the Binding Bmax (OD450) came to 1.1 OD450, the EC50 came out at 322 nM and the EC50 fold change from Ab1 was found to be 1110 fold.

In the case of B4, the Binding Bmax (OD450) stood at 0.6 OD450, the EC50 was determined as 85.9 nM and the EC50 fold change from Ab1 amounted to 344 fold.

For the molecule B5, the Binding Bmax (OD450) stood at 1.2 OD450, the EC50 came out at 69.6 nM and the EC50 fold change from Ab1 stood at 290 fold.

Turning to B6, the Binding Bmax (OD450) stood at 1 OD450, the EC50 came to 548 nM and the EC50 fold change from Ab1 stood at 1890 fold.

With B7, the Binding Bmax (OD450) came out at 1.8 OD450, the concentration for a half-maximal effect (EC50) is 117 nM and the EC50 fold change from Ab1 worked out at 532 fold.

For the molecule B8, the Binding Bmax (OD450) was found to be 1.2 OD450, the EC50 stood at 128 nM and the EC50 fold change from Ab1 is 584 fold.

Turning to B9, the Binding Bmax (OD450) worked out at 0.6 OD450, the concentration for a half-maximal effect (EC50) was determined as 75.3 nM and the EC50 fold change from Ab1 amounted to 260 fold.

For the molecule B10, the Binding Bmax (OD450) worked out at 1.3 OD450, the EC50 worked out at 619 nM and the EC50 fold change from Ab1 was 2140 fold.

With B11, the Binding Bmax (OD450) came to 1.1 OD450, the EC50 was found to be 43.6 nM and the EC50 fold change from Ab1 is 182 fold.

Turning to B12, the Binding Bmax (OD450) amounted to 0.6 OD450, the EC50 turned out to be 129 nM and the EC50 fold change from Ab1 worked out at 517 fold.

As for B13, the Binding Bmax (OD450) turned out to be 1.5 OD450, the EC50 was determined as 198 nM and the EC50 fold change from Ab1 came to 827 fold.

Consider B14, for which the Binding Bmax (OD450) was found to be 0.9 OD450, the EC50 amounted to 140 nM and the EC50 fold change from Ab1 was 562 fold.

Take B15: the Binding Bmax (OD450) turned out to be 0.7 OD450, the EC50 was 368 nM and the EC50 fold change from Ab1 amounted to 1270 fold.

In the case of B16, the Binding Bmax (OD450) came to 0.8 OD450, the 50% effective concentration (EC50) was 190 nM and the EC50 fold change from Ab1 turned out to be 657 fold.

B17: the Binding Bmax (OD450) was determined as 0.8 OD450, the EC50 stood at 45.2 nM and the EC50 fold change from Ab1 was found to be 181 fold.

Regarding B18, the Binding Bmax (OD450) is 1 OD450, the EC50 was determined as 184 nM and the EC50 fold change from Ab1 came out at 633 fold.

On to B19, for which the Binding Bmax (OD450) amounted to 1.8 OD450, the EC50 stood at 101 nM and the EC50 fold change from Ab1 was determined as 461 fold.

As to B20, the Binding Bmax (OD450) was found to be 1.1 OD450, the EC50 is 278 nM and the EC50 fold change from Ab1 stood at 959 fold.

The target of another test is Antigen 1 (Ab1 target) expressed on HEK293 / HEK-293F cells. The test can be described thus: saturation binding FACS, HEK293 cells.
Antigen 1 (Ab1 target) expressed on HEK293 / HEK-293F cells, sequence (P06756 31-1048, chain 1 of 2): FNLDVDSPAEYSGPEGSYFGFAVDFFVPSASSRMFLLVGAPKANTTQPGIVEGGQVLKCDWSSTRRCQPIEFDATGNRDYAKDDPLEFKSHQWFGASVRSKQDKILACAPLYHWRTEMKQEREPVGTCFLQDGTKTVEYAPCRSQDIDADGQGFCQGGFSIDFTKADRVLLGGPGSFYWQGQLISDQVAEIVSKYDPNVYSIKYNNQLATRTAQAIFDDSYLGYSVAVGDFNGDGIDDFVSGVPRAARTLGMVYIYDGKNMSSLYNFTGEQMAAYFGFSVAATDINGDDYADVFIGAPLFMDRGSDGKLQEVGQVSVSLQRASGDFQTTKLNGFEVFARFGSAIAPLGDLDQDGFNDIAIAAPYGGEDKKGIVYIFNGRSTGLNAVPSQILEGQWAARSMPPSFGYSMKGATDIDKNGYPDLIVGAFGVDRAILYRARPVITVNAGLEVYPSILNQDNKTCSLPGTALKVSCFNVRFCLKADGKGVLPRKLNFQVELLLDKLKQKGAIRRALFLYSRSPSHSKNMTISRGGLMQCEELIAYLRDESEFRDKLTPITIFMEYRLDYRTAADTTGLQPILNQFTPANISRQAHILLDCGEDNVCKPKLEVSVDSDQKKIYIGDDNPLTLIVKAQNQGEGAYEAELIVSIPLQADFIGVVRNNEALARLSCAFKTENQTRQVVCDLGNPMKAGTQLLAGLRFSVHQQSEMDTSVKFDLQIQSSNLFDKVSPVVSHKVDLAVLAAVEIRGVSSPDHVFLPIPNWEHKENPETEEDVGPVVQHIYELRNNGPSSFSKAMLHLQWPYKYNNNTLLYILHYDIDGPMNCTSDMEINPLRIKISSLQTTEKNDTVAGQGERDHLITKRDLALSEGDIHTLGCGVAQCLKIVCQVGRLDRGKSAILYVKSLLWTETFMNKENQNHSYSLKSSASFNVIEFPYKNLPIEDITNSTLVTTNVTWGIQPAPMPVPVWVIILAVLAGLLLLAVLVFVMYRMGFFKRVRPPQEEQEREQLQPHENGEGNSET
Antigen 1 (Ab1 target) expressed on HEK293 / HEK-293F cells, sequence (P18564 22-788, chain 2 of 2, further chain): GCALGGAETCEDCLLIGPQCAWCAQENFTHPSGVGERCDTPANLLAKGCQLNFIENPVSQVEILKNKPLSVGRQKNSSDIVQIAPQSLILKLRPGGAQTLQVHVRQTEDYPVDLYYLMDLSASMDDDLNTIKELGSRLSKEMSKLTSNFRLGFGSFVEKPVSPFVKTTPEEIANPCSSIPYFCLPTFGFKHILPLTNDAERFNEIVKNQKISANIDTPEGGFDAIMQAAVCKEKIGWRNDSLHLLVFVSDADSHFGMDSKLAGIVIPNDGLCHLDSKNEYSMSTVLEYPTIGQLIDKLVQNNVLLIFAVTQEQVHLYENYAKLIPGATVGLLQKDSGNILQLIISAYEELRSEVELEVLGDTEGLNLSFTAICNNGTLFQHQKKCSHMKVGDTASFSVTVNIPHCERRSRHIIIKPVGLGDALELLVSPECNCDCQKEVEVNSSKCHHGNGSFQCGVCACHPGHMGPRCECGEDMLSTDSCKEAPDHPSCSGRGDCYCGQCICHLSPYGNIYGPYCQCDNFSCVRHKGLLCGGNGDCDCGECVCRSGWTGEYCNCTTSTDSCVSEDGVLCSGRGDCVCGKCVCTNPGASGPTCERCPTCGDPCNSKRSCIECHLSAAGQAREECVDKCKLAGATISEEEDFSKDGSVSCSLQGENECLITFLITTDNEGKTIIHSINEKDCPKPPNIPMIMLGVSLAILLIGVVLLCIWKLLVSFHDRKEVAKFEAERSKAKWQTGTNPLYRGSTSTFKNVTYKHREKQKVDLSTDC
Regarding B2, the EC50 is 2.8 nM and the EC50 fold change from Ab1 turned out to be 20 fold.

With B3, the 50% effective concentration (EC50) stood at 144 nM and the EC50 fold change from Ab1 is 1030 fold.

In turn, B4 came in with a concentration giving a half-maximal response (EC50) of 14.5 nM and an EC50 fold change from Ab1 of 104 fold.

As to B6, the EC50 came to 42.9 nM and the EC50 fold change from Ab1 stood at 306 fold.

Consider B9, for which the EC50 amounted to 2.1 nM and the EC50 fold change from Ab1 came out at 15 fold.

B10 yielded an EC50 of 9.1 nM and an EC50 fold change from Ab1 of 65 fold.

Consider B12, for which the EC50 amounted to 14.1 nM and the EC50 fold change from Ab1 was determined as 10 fold.

As to B14, the EC50 turned out to be 132 nM and the EC50 fold change from Ab1 was determined as 943 fold.

In the case of B15, the EC50 was found to be 7.5 nM and the EC50 fold change from Ab1 was found to be 54 fold.

B16 displayed an EC50 of 38.4 nM and an EC50 fold change from Ab1 of 274 fold.

The molecule B17 registered an EC50 of 16.8 nM and an EC50 fold change from Ab1 of 120 fold.

As to B18, the EC50 came out at 152 nM and the EC50 fold change from Ab1 turned out to be 1090 fold.

Consider B20, for which the concentration giving a half-maximal response (EC50) turned out to be 59.3 nM and the EC50 fold change from Ab1 was found to be 423 fold.
